The text below walks through data of the NTF2 design screens of Basanta et al. (2020).

This data set is described as follows: protease stability score; higher = more stable; yeast display proteolysis, trypsin and chymotrypsin.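 Note: relative to predicted unfolded state with 0 unfolded-like and 1 meaning tenfold more protease.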
Turning to “SELEERAEKMTKEFERAFVTGNWEEQVKLLDPNVRIDINGVIFVGREQYERLVREIWMHVEDFRVTSLELQGEKARTHVESDVIIRVNGRDIRKKTEEEIVVSKINGVWSVERIHVR”, the protease stability score was 1.24.
Then “DESHRESKLANELLKLALHTGDEDLLRELLDPRMRLEIGDKEFIGRDIMVQAMHEFYRELGVKHTDLKIKRVEIQGNKVINEGILWFHVGDKEHWVSTEFQSVKVNGRWLLQVFSIK”, with 1.35; and “DEEQRVEEEMAEMQRLWHETGDEESIQKNLDPRTRIVIHINGKEIRLHGREAWLKEVRRLGVKYLRIEDMEVVDGRVHARIHYTVNGVKIRIRVEFYIVDGRMEEIRRHWE”, with 0.432.
Turning to “REEESEWKKFFEDLLRSLVTGDESSLSKMIDPHARLDVDGREFHGREHMAHWIVRTLNEHGITIKIEIKDFRLVGDKVHVDGHEDIEVGDKRHERRLHIILLKFNGRWVIKELKVE”, the protease stability score is 2.67.
With “SEDERVAEELLRLLSEYLKTGDEQIVTELLDPHTKMIIDGQTHIGMDVWQMLRKHIRVKNSDVHDVKFVDGRMHLDMRVHGHVNGVDVTRRLHVHTHKINGRWHIKEIHIE”, the protease stability score came to 1.46.
To “DESTRDVKEMVEWFLRTLHTGDEHLLEHLLDPDVRVLIDGREHHGRETMREIWKEHIDKIKGAVIEIKRIEVRIQGNKAHLHVDTVLHYNGRNLDTHIEIIITKINGQWRVREVEIRVR” belongs 2.21; to “DEDRKHMEQAITLLKRLWETGNEEDILKNLDPNVRFEVGEWVDHGRRSIEIFRERFKNLRVHDTRHKDRDVVDGRAHLHGEYNGEINGRLINTHVILVIEKVNGRWYFESIHIH”, 1.19; to “DQKKELIKKVHEHLFEDLITGDEKKLLSLADPNMRSDINGREIHGMEETSRILLELNRHWGVDRVEVHEHDMKIQGDKAIIHGTLKFNGVETTVELVILKINGVWLLKEVHFR”, 0.76.
To “EEEEKVEHDLLRLFAEALSTGNEHIMAELLDPHVRIIVNGKHNIGRETRKTFIEHIRVRSEDVRIRTIEVQGDKIITDSEMDIILDFDGVRTTTTVEVQIIIWKYNGKWYIKMVKFK” belongs 1.36; to “SEDEEESEKFLRRLLQAYRTGDEDKLNELIDPNARMDVNGVDNHGWEEISRLLKELRVKHLILHDQKNYDGRAEMDTIVDGRFNGRDDRRKSIIIVIKIDGRWIIESLSIG”, 1.1; to “DEWDNAREELKRMLFKLLETGDEDSFKRLIDPDARQHIDGQEIHGRERVYEIFYRIKNMTVHHIEDKHYEIVNGQIHSDVRIDMIVNGKRITLNIRVVMIKIDGKWYLHSEKIS”, 1.6.
Then “DEEERLTRDWAKQWIHFLETGDEDRLMELADPHVRIDVNGQEFHGREQFNKFMSHLTTHARFETKEVQVIGNKTHIDTRMSIDGKTTETLVILIIWNGRLKELRIHHH”, with 1.47.
The sequence “SEHHEKLLHLTTLFLEAFWTGDEDIFHHLLDPNVKSIFNGREIHGRHIFSDLRRQIRVERTHVEHEQIVDGRVFMHGKSDGHINGRTHKSHLEIEIVVFDGKVERIKIELR” registered a protease stability score of 0.499.
To “DELEHLLREFFRLWKTAVETGDFRMLLELADPHVKQHIGDKTFVGWERLIESIERIVHEMRITEVTFTQVQVQGDYAHVDLRVFSEVGDKHLILKVELFLLKVNGRWVLESLRVE” belongs 1.62; to “DEDEKLSREAFRKLLEDRETGDEHMLTRNADPRARIEVNGVELHGREHAEKFWRHYHEKFKNIRINIEHHEIQGEKVIIRGILHVNGVNLTVEIHALKINGKWLNEEFSVK”, 0.129.
To “DEWEETAKKATKDQLRDVATGDEDSHESLLDPNVKLQVGDKTFHGREEIHRWLREFLNKIPNIRLEVKEIHTQGDFVILDMKMDIDGREIHVRIVMIKVDGRWFVNKLIII” belongs 0.615; to “SELEQMWREAKETIEKINKTGDPRSLLENADPTVRTDYGEKDYHGREEFKKFLEWLGIKHIKDVRFRDFEVQGDKIIHDSEVDVEVGDKEFRIKSIVIALKVDGRWLITRLVFK”, 1.9.
The sequence “DEDEKTAEETLNEFIRSLLTGDEDNLKHLLDPNTRFHINGQDIHGWEVYYEMFRQWRVTHVRLEVKDFRIFNGRLDADGHLRMHGTINGKNRDTSSILHMHSVKVNGRWVLTEVRVE” showed a protease stability score of 1.78.
Then “DEEEHDLRLAVELWHRLLETGDERVEKHLIDPHVRVHFNGRDLHGREAATWTLRTMGVKVFELKRIETFNGQVNIHQHVNVDGQHYDLIIHARKIDGRWVNESMRIH”, with 0.667; and “DEMEEHSRHLVELFWHWTDTGNEDLIRKNADPNVRLEVNGVHAHGWELYIRMMNQIRIEDRKINDVEVQGDKMRVDGEVQIYYNGKRVDDHLKLHLVVVDGKLKSVHRELE”, with 1.31.
To “EEDDKFSELAFNMLVESFKTGDEQHWRELADPRVKYQIDGRDLIGWTAFRRFLNEFGIDHMHIKLHDHRDYNGQVELDETLEIRYGDKTEHIKVTTIVHKINGQWIVKSFSVH” belongs 0.682; to “SEEEKIMEELLRRIVNALQTGDEDFWSHLADPDTRFVLIQGEWSDEVHGRENALKFMEELKKRVPGMRIRVKDSRVQGEKLHVDGEIIYNGRSFDVEIRLRVVDGRIHEFQIIIR”, 2.06.
Then “DEEHKEREDVAREIITLLLTGDEEIWLSMMDPHTRININGKYAIGRENIEEIIKDLLRRIPNIRIIMQDMKIQGDKVTIHGIHNVNGREHEWRVHIISVNGRIKSIEVRIH”, with 1.47.
Consider “DEDEERNEHFLRLYEKITTTGDEDIAKELIDPNARLHVNGKDIHGRESVVKWLKELRIHHLKLRHFRIVGEKAENDISYDVEVDGRTNRRDVHIYLLKIDGRWVIHSIEVR”, for which the protease stability score was 1.84.
Then “DEEEERARHWIERFVRAVLTGDWEHILRNADPNVRLHVGDKEIHGRERMIETFREFWERYPGVRIKIHQVEIQGEKSHLDGEIRFDGRRFRVEFEVVIINGKIHELHIRIH”, with 2.62.
To “SDEHEWERHLYHVLIHAVNTGDEDLVTEMMDPHVRTDINGVELHGRNELSRQLKEMGIKHLEIEHLDFVGNFLVSQVRVDVNGVDYKSEIIALKINGKWLLSELRLE” belongs 1.04; to “DEEEDRIMKMLRLIILEIVTGDEEKFRHLFDPDARFIVGNKTYHGWEMWHEEFRHIRITEMELEHYDVINGRAHLHTRLRGKINGREIDTETRLIVVVINGKIHSIELRIH”, 2.18.
“SEEERMTHEATRDLIETILTGDENILRKLADPNMIINVRQGEKDIRIHGRHDYIRWVKLLGVDHVQVRDIHFQGDKATIHLEVEVNGRSINMIIIMRKVDGRWLITETREHHL” yielded a protease stability score of 1.09.
For the sequence “SDLDDMATKLIHEWIHAELTGDFKRIEELIDPHVRIVIEVNGRRIELIGREELRRWLEEWMEEMRHEIKLTHIEVQGEKTHVDTHLVIRAENHSYHHKTSRIFIIINGRMHSIHVHIR”, the protease stability score was found to be 1.7.
Then “DEDKEHIDRSLEELRRSWKTGNEEDVLRLADPHVKMIYNGRHHIGRENFEEALKILLERVDHWEDFRITDRHRQGDKVELDVESEGLVNGVTKRTEMIFIILKIDGRWLLHSLEIR”, with 0.724; and “RDEDEVVDHIARLIVEAWRTGDEDWLKKMADPNVKQHIHIDGKTEINHGREEMIHQLERLHRKLGVDHHHLKSSTVIGDKIKIHMEERIGDFSIFVHVEFIVINGRMKEIRISIERE”, with 0.931; and “TEREEDVKTAMDHLYEIIETGDWKEIHKLIDPNAKVHIDGRNLIGRELMTKIIEEMSEKYKNLRLELTHFEVQGNKVISHTNNRFDGREVRTLMILTKIDGRWIIHSINLE”, with 1.11.
“DEEDELLERTLKEVAHAWRTGDWRRIEEMFDPNARVDINGVNFVGREEMHRILHEMRIEIEDFKLRRKRIVDGRLELDGEMLGIFRQGDKERRHRSRVFIVILKIDGRWVFEEVRFH” registered a protease stability score of 2.43.
To “SDEIEEVKTFVRLFTKDLETGNEEDLKRLADPNTRLDVNGREIHGWKSMEHRYRELMEKYKNLRIEVKIDDIRVQGDKIHIHTTIKLDYDGVDIELSSWLVIHKINGRWFVRSIEME” belongs 0.605; to “SEDDHELEKLIRLWYDSVLTGDERTINELFDPNTRLEINGKVLHGMENFHRFVHTFLHHIRLKRIEIEDIKYINGVAHIDSRMVGDINGKDVRYETQFLVQKVDGKWVIKAVIIR”, 2.08; to “SEEEESIRHSWEIFETVLKTGDWTDYEKLFDPNDRTEIGDKRLHGMDLLIHILRRLGIKHNHAEMRIRSFEMIGDKAIIDGEIHVVLDFNGREVRSSSEILIIDRKINGRWLVESMHVI”, 1.21.
Then “SEEDELAMEFMREQDRNQETGDWRRLSELADPNTRVEVNGREIHGMELWIKLLINKLREHGMEVRLHVERVEFYDGVADLDLRLYIHINGKDIHFHTQIIILKINGKWILKYIIIR”, with 1.25.
Then “DEVEKHLVHLTHRWIHSLLTGDEETISELLDPHARFNQGEWHHHGRELELRYWKEIRFKEMRISRYTAQGDKYHLDTELKGQVDGKEVRVRTHVHLVWVNGRAQSIYVEIH”, with 1.02.
Consider “SEQHKIAQEMAERILELWQTGDEDTFRYLADPHYRLHIIINGKHHDHHGREEWDKWYRELLDRIDHVRLIWRSVETQGDKLRVDGELVLIIDGKRIVEKVHLEFRVIDGVLRHETIKVR”, for which the protease stability score is 1.48.
To “SEDDRDSKEAKHLLHELIRTGDEDELVKLLDPNMIIIVGDKEYIGWEQAVRLLRELNRRFDHVELRFRDIEIQGEWVDTDIELIYRFDGRETRIDTRFIAYKVDGRWFNHHIEIK” belongs 0.582.
To “DELHELVKRYWDRWIESMLTGDFDANHELVDPHARVDIGDKRFHGRELYELHYKRIDHFHIHEINIRHIEVVDGRVHIDVIMHTFEIVNGVKFSHHFRQIIIIEKVDGRWVVRRIIVK” belongs 1.01; to “DHEEKLYELEIRLLQEIVETGDEETSHRLADPHARLNINGRHLVGREHFREFVHKIKGARLDIEEVRVQGDKVIIHGRWIQGDKELDVDFISRKIDGKWKFHSIHVH”, 1.33; to “DELEQLAREVWETLRRAELTGDENRIHEMLDPNVRVDINGRESHGWDSFIYLLRELRFEDMHERDYRIRDVNGRLEITVTGDLEGEFNGKHFNRHTVIIIILEKYDGRWKVHEVKIELR”, 2.19.
Then “SEEDEDVKRILELWLRSEETGDEHLSLELADPNTRKHQGDKEFHGMSKLVQLLAELYRRADHSHFIEKRVEVFENHVRIVGHFVLIVGEFRIVVDILILARKIDGRWILTRVNWR”, with 1.51.
Turning to “REDEKFRDYATHWLEKYVRTGDENLMEELIDPDVRVHVNGQENHGMDEMRKWMLELRIEHIIIRRIEIHVYDGVIEINIDSETRVNFNGRKIRTKVHIHTETRKIDGRWSISHLELRFK”, the protease stability score worked out at 1.07.
Then “DQDEEIMRRLLKTILESWVTGDEDELRRRADPDARSDINGRKHHGRDRVVKRMHDWLRELGIDHLHIEHERIIGEKAHFDTRVHVNGKTFEMFLHFEIIDGRVRSMHVEIR”, with 0.654; and “SDIEEMYRINLEIFEHSQQTGDWRMISHMADPNVRISVGDKEIHGRELFEKHLRDTVEKLGAEVHWELNHVRIQGDKLLVRGHLRIKYGDKHETFDIELYADKVDGKWLIHEIRVD”, with 1.44.
